Molecular target: HLA-A*02:01 (Homo sapiens, UniProt P04439, D140Y/D185E/D98H/E176V/E277Q/G131W/G231S/I119V/I121R/I166T/I218V/L300P/L318F/N151K/N90K/P208A/P217A/Q86G/Q94H/R138H/R169H/T345S)
Experiment: MHC binding assay (UV-ligand exchange, ELISA of exchange yield)
Settings: binding to HLA-A*02:01, UV-ligand exchange
Procedure, shortened: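 ELISA of β2m retained on streptavidin-captured, 100-fold diluted complexes (HRP anti-β2m, TMB, 450 nm) gives the yield. Complexes come from UV-triggered exchange of a photocleavable placeholder peptide for the candidate, which must bind to stop complex dissociation.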

Substance	Peptide exchange (MHC class I binding score, peptide exchange yield)
299 (YLLETSGNL; listed as Homo sapiens) [compound 299]	“+++” (≥50 = +++)
300 (ALLGQTFSL; listed as Homo sapiens) [compound 300]	“+++” (≥50 = +++)
301 (FLVEDLVDSL; listed as Homo sapiens) [compound 301]	“+++” (≥50 = +++)
302 (ALLQEGEVYSA; listed as Homo sapiens) [compound 302]	“+++” (≥50 = +++)
303 (AILPQLFMV; listed as Homo sapiens) [compound 303]	“++++” (≥75% = ++++)
304 (MTLGQIYYL; listed as Homo sapiens) [compound 304]	“+++” (≥50 = +++)
305 (SIANFSEFYV; listed as Homo sapiens) [compound 305]	“++++” (≥75% = ++++)
306 (ALVNVQIPL; listed as Homo sapiens) [compound 306]	“+++” (≥50 = +++)
307 (ALPVSLPQI; listed as Homo sapiens) [compound 307]	“+++” (≥50 = +++)
308 (SQYSGQLHEV; listed as Homo sapiens) [compound 308]	“+++” (≥50 = +++)
309 (GLFDGVPTTA; listed as Homo sapiens) [compound 309]	“+++” (≥50 = +++)
310 (FLVDTPLARA; listed as Homo sapiens) [compound 310]	“++++” (≥75% = ++++)
311 (RLYTGMHTV; listed as Homo sapiens) [compound 311]	“+++” (≥50 = +++)
312 (IISDLTIAL; listed as Homo sapiens) [compound 312]	“+++” (≥50 = +++)
313 (VLFDDELLMV; listed as Homo sapiens) [compound 313]	“+++” (≥50 = +++)
314 (ALIAEGIALV; listed as Homo sapiens) [compound 314]	“+++” (≥50 = +++)
315 (YLQDVVEQA; listed as Homo sapiens) [compound 315]	“+++” (≥50 = +++)
316 (ILLERLWYV; listed as Homo sapiens) [compound 316]	“+++” (≥50 = +++)
317 (SLAALVVHV; listed as Homo sapiens) [compound 317]	“+++” (≥50 = +++)
318 (GLINTGVLSV; listed as Homo sapiens) [compound 318]	“++” (≥20% = ++)
319 (SLEPQIQPV; listed as Homo sapiens) [compound 319]	“++” (≥20% = ++)

Substance	Peptide exchange (MHC class I binding score, peptide exchange yield)
320 (KMFEFVEPLL; listed as Homo sapiens) [compound 320]	“++++” (≥75% = ++++)
321 (GLFEDVTQPGILL; listed as Homo sapiens) [compound 321]	“++++” (≥75% = ++++)
322 (TLMTSLPAL; listed as Homo sapiens) [compound 322]	“+++” (≥50 = +++)
324 (FLYDEIEAEV; listed as Homo sapiens) [compound 324]	“+++” (≥50 = +++)
325 (FIMPATVADATAV; listed as Homo sapiens) [compound 325]	“+++” (≥50 = +++)
326 (FLPEALDFV; listed as Homo sapiens) [compound 326]	“+++” (≥50 = +++)
327 (GLAPFTEGISFV; listed as Homo sapiens) [compound 327]	“+++” (≥50 = +++)
328 (ALNDQVFEI; listed as Homo sapiens) [compound 328]	“+++” (≥50 = +++)
329 (FLVTLNNVEV; listed as Homo sapiens) [compound 329]	“++++” (≥75% = ++++)
330 (QLALKVEGV; listed as Homo sapiens) [compound 330]	“+++” (≥50 = +++)
331 (KVDTVWVNV; listed as Homo sapiens) [compound 331]	“+++” (≥50 = +++)
332 (YLISELEAA; listed as Homo sapiens) [compound 332]	“+++” (≥50 = +++)
333 (FLPDANSSV; listed as Homo sapiens) [compound 333]	“++” (≥20% = ++)
334 (TLTKVLVAL; listed as Homo sapiens) [compound 334]	“+++” (≥50 = +++)
335 (YSLSSVVTV; listed as Homo sapiens) [compound 335]	“+++” (≥50 = +++)
336 (ILLTAIVQV; listed as Homo sapiens) [compound 336]	“+++” (≥50 = +++)
337 (HLLSELEAAPYL; listed as Homo sapiens) [compound 337]	“++++” (≥75% = ++++)
339 (GLWEIENNPTVKA; listed as Homo sapiens) [compound 339]	“++++” (≥75% = ++++)
340 (ALLSMTFPL; listed as Homo sapiens) [compound 340]	“++++” (≥75% = ++++)
341 (SQIALNEKLVNL; listed as Homo sapiens) [compound 341]	“+++” (≥50 = +++)
342 (HIYDKVMTV; listed as Homo sapiens) [compound 342]	“+++” (≥50 = +++)

Substance	Peptide exchange (MHC class I binding score, peptide exchange yield)
343 (SLLEVNEESTV; listed as Homo sapiens) [compound 343]	“+++” (≥50 = +++)
344 (YLQDQHLLLTV; listed as Homo sapiens) [compound 344]	“+++” (≥50 = +++)
345 (VIWKALIHL; listed as Homo sapiens) [compound 345]	“+++” (≥50 = +++)
346 (LLDSKVPSV; listed as Homo sapiens) [compound 346]	“+++” (≥50 = +++)
347 (SLFKHDPAAWEA; listed as Homo sapiens) [compound 347]	“++++” (≥75% = ++++)
348 (ILLDVKTRL; listed as Homo sapiens) [compound 348]	“++++” (≥75% = ++++)
349 (SLTEYLQNV; listed as Homo sapiens) [compound 349]	“++++” (≥75% = ++++)
350 (ALLDVTHSELTV; listed as Homo sapiens) [compound 350]	“+++” (≥50 = +++)
351 (SLIPNLRNV; listed as Homo sapiens) [compound 351]	“+++” (≥50 = +++)
352 (SLLELLHIYV; listed as Homo sapiens) [compound 352]	“+++” (≥50 = +++)
353 (YLFEMDSSL; listed as Homo sapiens) [compound 353]	“++” (≥20% = ++)
354 (LILEGVDTV; listed as Homo sapiens) [compound 354]	“++” (≥20% = ++)
355 (SIQQSIERLLV; listed as Homo sapiens) [compound 355]	“++” (≥20% = ++)
356 (KLLGKLPEL; listed as Homo sapiens) [compound 356]	“+++” (≥50 = +++)
357 (SMHDLVLQV; listed as Homo sapiens) [compound 357]	“+++” (≥50 = +++)
358 (ALDEYTSEL; listed as Homo sapiens) [compound 358]	“++++” (≥75% = ++++)
359 (YLLPESVDL; listed as Homo sapiens) [compound 359]	“+++” (≥50 = +++)
361 (ALYELEGTTV; listed as Homo sapiens) [compound 361]	“+++” (≥50 = +++)
362 (TLYGLSVLL; listed as Homo sapiens) [compound 362]	“+++” (≥50 = +++)
